# Results from the domain aggregation screens of Martell et al. (2025).
# Test: soluble fraction after stress (log2 fold change); higher = more stays soluble; pooled small domains, quantitative proteomics
# Conditions: stress: pH 4
# Method in brief: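 How much of each domain stays soluble after acid stress, expressed as a fold change, is used to gauge aggregation propensity. Pooled custom libraries of small domains underwent pH 4 stress before high-throughput quantitative proteomics. A higher log2 value means more of the domain stayed soluble.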
row,Sequence,soluble fraction (log2)
1,HMKLPNGYGGIAKLSGKRRNPWRVRVTKGWSVDEQTGKAKQLFSTLGYYPTRKDALAALSAYNQNP,0.22
2,HMSNTIFGINGPVVTVASKDFSMQEMVYVGNERLVGEVISIDDDLTTIQVYEVTTGLKPGEPVVGTGSAM,-1.64
3,HMAKRKTEKTSVLEEIDGVGKARARALLARFGGLSGVKAASPEELRTVRGITPEIAENIRRYFQ,0.134
4,HMAPIEVPYNVFRQQVVEGNVESVATRADTVQGYFETPVTLPARPDAAAAEPVTVERFSTTLPSF,0.00217
5,HMNGADPYEQLGVTRDASDDELKAAHRKLSRENHPDTLMAKGMPPEFIEQANDKMARINAAWDQIRKERGI,0.124
6,HMFYQLTENQRRILSSLEQNPRVSAAHLAEEIGISSRKVENNLKKLKEIGLLQRHGSPRKGYWSINQGW,0.15
7,HMKTPAPRETILSLFRQTPDGFVSGERISDELGVSRTAVWKHIRNLRQAGYQIEAIPSRGYQLQQS,-0.0693
8,HMQNEKLSYFVTETIVTERADLFITKKFPQFSRSQIQKLINSGNITINSNPIKASTEIINKDNIEITIPV,-0.814
9,HMKILALETSAKAVSAAVSENGRILASGYQDTGLTHSRTLMPIVEHILKNTDLKLSDMDAIAVAVGPG,0.22
10,HMTGLRETIPAALDGERLDRVVALLGDVSRSRASAALEAERVTLDGEVVTLRSHRVREGEELTVAGFE,0.177
11,HMNIGSKLRYLIEEANITQRQLADALHISPSALNGYINQGKEPDYATLVRIADYFHTSTDYLLGHSNIR,-0.202
12,HMSGAERAAALLVALGPEVASEIMKFLDDESIQKLASEIAKIEVLSPQEKEDLIGQFLLELKKT,-0.982
13,HMAVVIPDVKGMTIEEAAPFLAEKGIRYNIIDSVFSKDVDPGAIVEIVPTPGSKVKEGRIVFVTINAK,-0.774
14,HMQSYHVGDKVTIKNSASHWATGQSIYNGVKGHTYKIIQTNGHKLLLDQVISWINDGDVYKAGS,0.0872
15,HMAIADQPISAEHFDKLRQVLNSNTQETIASAKQHWASISNNAEFTNENVTRTLLEEMLAFIKSAS,-0.887
16,HMDFQTDVFISRFAELKKESGETNKDLQDVFELSLSALINYQTGKRIPDIAFLHKLAQHFGVSADYLLGLS,-0.6
17,HMDDLATAYKAMGVDASISDKDLKRAYRKLMSQHHPDKMIAKGVPADMVAMATEKTQEIQAAYDLIERSR,0.0752
18,HMFPSLSPEEQAVVDVLQRNNDLQINMLSVQSGLTISRLTALLFQLEMKGVIKPLAGGMYHLL,-0.493
19,HMEVSTDADFEAVGIRAELIPILQKLGFTTVAQLKEVKATKLFNDIPGMRKKLKLDAVQNPTLQEIEGWLK,0.0606
20,HMESYNIVEQVLTKKILSKGNTLAKLSNEFDGLVMLVIRGDEFIIPNGETLLFEKDILVINNGP,-1.2
21,HMYKNAFITYDNNLYYLGSDSKMAIGWQSIGGNTYYFRNWGGMITGKQVIDGKTYVFDEDGKLVQSPD,-0.807
22,HMDPASYEARLSTLREQGAQQLDPVRFQYLATLAQRLPTQTPGVALILANKLRAGLSDYEQRLSEAGS,-0.0623
23,HMALQDKYKQLVDTATASGVANLQVREQDGVLYIDGEAPSGSVKDQLWDIYGKIDPNFLSGDVVMNINV,-1.12
24,HMIPDLPAIGENLYRERKRQQLSMAELAAASGISKAMLSQIEADKVNPTIATLWKIAHALHVDLESLISGG,-0.0815
25,HMKMSVEEVNLSPRTTNALINNDIKTMKDLVALTDTELRDLKGFGSKAYEEVKEKLSELGLSTQ,-0.546
26,HMGMIRFSKEEQMLMMLYSPGSRLGLIAELESMKLQLNSRERKLRNLAESVLKKLEQITDEEFMQFDF,-1.11

row,Sequence,soluble fraction (log2)
1,HMGGEIGSGKNGYVAFYKGKKVDVKADSMYGAQKTAAKYFNAKKEYDVNVVLAEVDGKQYVQS,0.151
2,HMNTLGTNIAKLRESQKLTQEELGKLSGVSRVSIYKIETGQSTPRDTTLQNIAEALHTTPSALRS,0.22
3,HMIGITTANLNVRTGTDTNYTSIAILPKGTKVNILEENVKPGWYKIQFDEIYAFVSSKYIKIQS,0.243
4,HMQDVVERIKKYKQLFSITSEELSKRSGIPLGTLNKILSSSTKSIKTETLAAIAKGLDVSVSDLVGREK,-0.0189
5,HMSQEILSNQSIKDMIELGFEEQTIIDKIQTSTSDFDTTIEELKALKQLGASPTILSAMIKSIKK,-1.97
6,HMGEPLTVVAAAGGDRLDRWLAGQLAGRSRAEIQRWIEAGQVTLAGRSLKASYRLSAGDAIDVAIPPPE,-0.0638
7,HMGADRLVGMTAIVTATIDPNDTDRKGRVQVEGEVWSALSDGRLIITEGSKVRITEMHGTRVRVEAI,-0.884
8,HMPYPSPADLARMDELIAWVKDEGRLPRDRSGQRSERSMARWLAARRREAAEGTLDPAYRDGLAQVPGWR,-0.304
9,HMYMKLSVKDAALFLSVSPETVYRWVKQEEIPYHTVNDQLRFNRAELLEWATARSLEVSPDLFVP,-1.53
10,HMVNPHPVYRSWGLLYVEARDGDSLESIAKEFGFSVKKLAKYNEVPKDYPLEAGDIVYLEKKKK,0.019
11,HMGEESIAELISNPKLSDAKRTVILDLLSRGLTVDQIKPYIQSDDPYTAEQLQFELYKLFFTQI,-1.34
12,HMAPKRIVLRFGKDISDKPIIYYLVKDYDLVINILKANVNPNKEGTLVLELSGENYDKGIEFLISQGVTVQ,-1.33
13,HMEEKVEVPNLSGKTYQQAKALLESYGLVAAKGGEEESEEPVGKVSRWSSAGKSVKKGTTITVWISGGI,0.1
14,HMDAYMGEAKDEETFAEEYLNDSGLLNEIPESVARYFDIVAYARDLLIGDFSLHDGHVFNMT,-0.377
15,HMTGSLRIKHKTYYMLFSWKDESGQWRQKSESTGIPERGGKRKAQEMLNTRLEELQLQSTASL,0.199
16,HMIQAGDLVFIWNPKKGDNFLIKVTPGMSQGTHFGQIKHTELMEREYGEGIVTPKGEVYYLLRPTLAGYTR,-1.3
17,HMGTDVFIMTGGTRKRGATWSYYFDLGKIDGKRQKKEKGGFKTKKEAETALAKAINEYNNAGA,0.175
18,HMTVTKYGKKILEIVSSSRSHMTAEEIFDALRQTYPTVVLATVYNNLNRLWQDDLIRKVSVEGMPDRYD,-0.0435
19,HMTNKSKQRRNEILRASQELFNKKGFHDTSINDIMRRVGAAKGVFYYYFETKDQILDTLIEQHIA,-0.471
20,HMQVPDLYRTLGVGRDATTEAIEAAYVGWQARLSAGEPISTQEWERLRYAHEVLSNPQRRSLYDSLVAET,0.0568
21,HMGLSAALKARLREVINEMAKSGAQPKLREWALAEGIGNFAKPETPEAAEAVIAKAQELLAEA,0.429
22,HMRGVNEISYTTLISEVSGGNVRDVVISGDEITGTFNDGSRFHSFSPDDPQFIERLNDQGVIINVKPL,-0.904
23,HMEFDVELTSFEEAKKLKVIKEVKDVTGLSLGEAKDLVMGAPKAIKTGVSKEEAEAIKTQIEAAGAVVTI,-0.699
24,HMRSWRDQRVDDLLAAVSELGMTMSRAAAGDLLDQRVEYVANQMRVTPATARKYLTEETLAGMAREIVFG,-0.83
25,HMRHEDLSPAQKAAALVVAVGSENAAQVLRHLSEEEVEILAGEVARLGEVDPDVVDSVMREVYEQMMGH,-0.929
26,HMGGALSPDFGWLAMIDPDEGRAITLYDIASGEAIAVLDTHEARVAALAWSPDGTRLASGDQNGLIVQWEI,-1.43

row,Sequence,soluble fraction (log2)
1,HMTALSIGTVVRFTGDRHYISSTGDTGYPASPGLAKITSINPGSKHPYHLIHIDNTSNVYGWVNKQDIIT,≥ 0.43
2,HMAIEGIFEKYQRRSDQLIPILQDVQKEFGYIAPESVRHISRYLRISENQIFGVSSFYAQFRFT,-0.422
3,HMDFGPDSAAPLADGSAPEGFDVKGNADSMLYHEPDGRWYDATVAEVWFRTAEAAQAAGFTKAGS,-2.02
4,HMTLDVALSKEIKYMLKEEHYLPGDKLPSERKLAELFHVQRLTVRGALNLLLQDKTIISKPRSGYYVAPKR,0.225
5,HMKQIEEIIARYTNENTPLMMILSDVQREYGYIPLDVQELISEKTGIPVAEIYGVVTFYSFFSL,-0.337
6,HMLQSGSDYLIEQVRMYTATGQREYMDNYFEELNTTRRRENALEYFAEHYGDNDAFTLLKSAMTTSQN,-0.691
7,HMREVDKRYYKINIAGTDRIFTNVYRVGDRYSAYEADKNGKPGKFLYSLSQAEIDRAVISGSFDFK,0.121
8,HMQSTEQVSVTVTIPPGGELRIDSDTFRVLLNGENVLDKQSGDWLMLSRDLLYLDIESAIGNGLSGNLIYT,-0.143
9,HMVEQVEISILPGEYSDTISQKLLDAGLIDDKAAFSKYINDTNVDNLIQPGTFTVPKGASYEEVAKILT,-1.35
10,HMIVVMAADSSREDLDLVQGRIEARGLRAQISQGVERIVIGVLGSLPPDLKDEMELLPGVREVLVIS,-1.19
11,HMGRAAEETETFRTQGELDARIKELQGQMRDAAANLEFERAAGLRDTLKRLRTRGLGLSASP,-0.0313
12,HMTSLVRTSNLDGFEPLARSIGVDPVMELMRFGIPPDALIRENMFISFIGFIRLLEHTALAG,0.206
13,HMTPDVHRGDTITVSLRAGAIRVRVPAKALEEGAAGGEIRVVNLTGGREYRVRVTGPGTAEAIL,0.0112
14,HMAAKADAVKKAIAAIGKVDASEDSKAKVEAARKAYAALTEDQKKLVEASQLKLLTEAEAAYQQAVEESKK,-0.0736
15,HMSALIGAHTLERIDSRDFEGVVMAWLPKRDGYDSLYKIYHIEDGDFEELDDREVQAAISLFIEGT,-0.388
16,HMNPGQIIRKLRQDQGMTLAVLAKYANLDPGNLSRIERDDLNISFNLLEKLSLILNVSPIVFFH,-0.0716
17,HMLIDSNNYFFYKVKPKEGFYSLQKKLGVNRSEIEKHNPSLINEVLKEGMILKIPKYLLNFDLN,-0.214
18,HMVRKIRARLVLQLRAEGLSGRAIAGSQGMSRKSVTAVLDAADRAGIGWDEIAERSEGEVYALLFPGRG,-1.18
19,HMYAVQKGDTLKKIADQFGISVDTIKWANDMKGDALSIDQELKIP,0.0154
20,HMDYLSEFITDKVVRADGYSIRKGELSNEFKQWFITNVGTKNPKPKEIHDYMDRKFGKNKNGIWKNVKIKL,-0.0984
21,HMLTRQNFHGIKLPTIHEYIDLLNSRVNANIDKTNNWQSSVSHLRTYLNSHNINAVSKESINNYIDERLN,0.0397
22,HMTMVKYRYLTDGELKEFEEEFKHFLIANGLHSEEWERLNNEDSNKAIEVVALFSNLILDKV,-1.06
23,HMKNYALHEPMMDRIAKVNALYDAGHTIKYMTARGAVSMVDYYDLTKSQLDSWGAKYHELSVGK,0.179
24,HMAPVEEWAKASVMEDPTLVTETMARIFAQQGQIGKARKAYRHLALTYPAKSTYFAAQLKKLNQR,0.355
